Measurements as given in US20240294670A1 (University of Texas, published 2024).

Experiments:
Q3T9S7_MOUSE = molecular target: T1, Q3T9S7_MOUSE (mouse, UniProt Q3T9S7 22-1179); test: anti-His co-IP of rCHI3L1 from Kupffer cell lysate, MS; listed under 'proteins bound to CHI3L1'
T1 construct: also called tr|Q3T9S7|Q3T9S7_MOUSE
T1 sequence: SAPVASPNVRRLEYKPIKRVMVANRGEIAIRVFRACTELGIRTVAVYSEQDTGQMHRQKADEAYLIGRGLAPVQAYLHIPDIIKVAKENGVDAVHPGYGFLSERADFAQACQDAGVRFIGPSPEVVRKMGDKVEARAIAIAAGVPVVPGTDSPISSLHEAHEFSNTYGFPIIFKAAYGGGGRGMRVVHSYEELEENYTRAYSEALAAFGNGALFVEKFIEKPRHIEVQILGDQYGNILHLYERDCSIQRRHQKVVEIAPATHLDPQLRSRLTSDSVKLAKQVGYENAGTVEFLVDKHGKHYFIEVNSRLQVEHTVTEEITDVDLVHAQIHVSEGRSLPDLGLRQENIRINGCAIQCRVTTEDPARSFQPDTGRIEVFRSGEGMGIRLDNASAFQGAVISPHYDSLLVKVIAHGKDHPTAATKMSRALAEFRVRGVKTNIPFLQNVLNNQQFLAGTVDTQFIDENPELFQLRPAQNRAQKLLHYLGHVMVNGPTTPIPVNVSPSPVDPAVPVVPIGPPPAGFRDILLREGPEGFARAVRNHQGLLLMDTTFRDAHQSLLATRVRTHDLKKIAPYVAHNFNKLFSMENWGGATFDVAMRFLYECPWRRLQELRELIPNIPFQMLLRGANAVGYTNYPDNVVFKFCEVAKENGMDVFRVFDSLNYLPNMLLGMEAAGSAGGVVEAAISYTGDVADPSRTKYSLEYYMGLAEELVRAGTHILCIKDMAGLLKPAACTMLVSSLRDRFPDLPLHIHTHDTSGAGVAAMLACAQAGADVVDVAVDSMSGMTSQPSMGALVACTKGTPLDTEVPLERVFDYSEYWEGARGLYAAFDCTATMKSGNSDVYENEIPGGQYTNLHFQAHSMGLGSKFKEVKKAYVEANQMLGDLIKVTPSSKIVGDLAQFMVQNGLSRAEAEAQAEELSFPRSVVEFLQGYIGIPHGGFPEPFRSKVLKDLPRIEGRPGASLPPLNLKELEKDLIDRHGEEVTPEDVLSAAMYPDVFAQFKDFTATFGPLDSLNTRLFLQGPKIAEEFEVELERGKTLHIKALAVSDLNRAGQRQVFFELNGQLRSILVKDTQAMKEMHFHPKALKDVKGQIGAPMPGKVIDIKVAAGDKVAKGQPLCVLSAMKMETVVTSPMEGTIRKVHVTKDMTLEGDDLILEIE
Experimental: (§1) CHI3L1 interacts with CD44 on KCs. To further understand how CHI3L1 mediates the function of KCs to recruit platelets, the inventors set out to identify its receptor on KCs. They isolated KCs from WT mice treated with APAP for 3 h and incubated the cells with His-tagged rCHI3L1. The cell lysate was subjected to immunoprecipitation using an anti-His antibody. The “pulled down” fraction was subjected to LC/MS analyses. A partial list of proteins identified, including CHI3L1 itself, is shown in (Extended Data Table 1). Because CD44 is a cell membrane protein, the inventors decided to investigate it is a receptor for CHI3L1. They performed/immunoprecipitation experiments using liver homogenates obtained from WT and CD44^{-/-} mice after APAP treatment. […] Moreover, the inventors incubated rhCHI3L1 with human CD44 and then immunoprecipitated with an anti-CD44 antibody. The data confirmed a direct binding between CHI3L1 and CD44 (FIG. 3C). Consistent with the notion that many cell types express CD44, they detected CD44 express on various hepatic non-parenchymal cells (NPCs) except B cells and DCs (summarized in Extended Data Table 2). However, when they incubated liver NPCs with His-tagged rCHI3L1, the inventors observed that the only CD44-expressing cells that could bind to CHI3L1 were KCs (FIG. 3D).

Q8C6E3_MOUSE = molecular target: T2, Q8C6E3_MOUSE (mouse, UniProt Q8C6E3 2-527); test: as above
T2 construct: also called tr|Q8C6E3|Q8C6E3_MOUSE
T2 sequence: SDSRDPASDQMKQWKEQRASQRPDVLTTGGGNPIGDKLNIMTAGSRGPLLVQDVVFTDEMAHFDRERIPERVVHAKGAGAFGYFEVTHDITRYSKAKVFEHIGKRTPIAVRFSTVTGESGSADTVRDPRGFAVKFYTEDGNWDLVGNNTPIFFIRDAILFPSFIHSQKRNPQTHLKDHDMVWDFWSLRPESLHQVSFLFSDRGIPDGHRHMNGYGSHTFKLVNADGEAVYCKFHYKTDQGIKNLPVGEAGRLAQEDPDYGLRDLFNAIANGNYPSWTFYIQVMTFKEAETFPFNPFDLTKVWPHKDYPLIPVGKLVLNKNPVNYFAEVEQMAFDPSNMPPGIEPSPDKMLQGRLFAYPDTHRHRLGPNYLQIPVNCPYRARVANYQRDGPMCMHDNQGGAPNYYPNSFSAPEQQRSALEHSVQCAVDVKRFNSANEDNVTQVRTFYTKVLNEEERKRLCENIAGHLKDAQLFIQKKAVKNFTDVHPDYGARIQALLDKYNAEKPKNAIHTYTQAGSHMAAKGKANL
Experimental: as §1

B1: recombinant mouse CHI3L1 (ligand)
chain: not shown
notes: His-tagged; also called mCHI3L1; mChi3l1
Question: Does B1 bind (Q3T9S7_MOUSE)?
Answer: binds

Question: Does B1 bind (Q8C6E3_MOUSE)?
Answer: binds
